Here are results for five molecules from PMC12056058 (Nature Communications, 2025).

Usually IC50 stands for the point on the concentration scale where inhibition reaches its midpoint.

Numbering of substitutions follows the chain as printed. Numbers in names are those of the source.

Data set [1] concerns the target T1, Fis1 (mitochondrial fission protein 1), cytosolic domain (Homo sapiens, UniProt Q9Y3D6, T34D).
T1 construct: cytosolic domain, C-terminal HRV 3C site and His6 tag (cut off), codon optimized, E. coli BL21(DE3); first 30 residues disordered in mutant crystals
T1 sequence (Q9Y3D6 1-123 T34D): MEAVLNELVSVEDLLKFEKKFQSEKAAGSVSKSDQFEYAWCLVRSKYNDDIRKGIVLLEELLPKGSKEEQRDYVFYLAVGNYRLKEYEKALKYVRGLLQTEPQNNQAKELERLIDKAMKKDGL
Nature of the data set: CPM thiol fluorescence competition. It counts as binding. To be noted: read-out: apparent IC50.

Data set [2] concerns the molecule itself. The data set can be described thus: crystal structure; tag-free Fis1 protein/mutant at 8 mg/ml, sitting drop; data at 100 K, SSRL BL12-2; molecular replacement with PDB 1NZN.

`CN(CCCN1c2ccccc2Sc2ccccc21)C(=O)CCl` [SP11, N-(3-(10H-phenothiazin-10-yl)propyl)-2-chloro-N-methylacetamide]: the half-maximal inhibitory concentration (IC50) in data set [1] was 9.4 µM.

As for `C=CC(=O)N(C)CCCN1c2ccccc2Sc2ccccc21` [SP22, N-(3-(10H-phenothiazin-10-yl)propyl)-N-methylacrylamide], the concentration for half-maximal inhibition (IC50) in data set [1] is 15.4 µM.

B1: Thr34Asp Fis1, cytosolic domain, tag-free (domain or fragment, human)
chain: T1 sequence (Q9Y3D6 1-123 T34D)
notes: Mitochondrial fission protein 1 (Fis1), human, cytosolic domain; also called T34D; phosphorylation mimic-mutant; source: E. coli BL21 (DE3), purified (Ni-NTA, HRV 3C cleavage, reverse Ni-NTA); not shown: His6, C-terminal, cleaved
For B1, in data set [2], the binding result is recorded as “binds”.

B2: Tyr38Glu Fis1, cytosolic domain, tag-free (domain or fragment, human)
chain: T1 sequence (Q9Y3D6 1-123 T34D) with D34T, Y38E
notes: Mitochondrial fission protein 1 (Fis1), human, cytosolic domain; also called Y38E; phosphorylation mimic-mutant; source: E. coli BL21 (DE3), purified (Ni-NTA, HRV 3C cleavage, reverse Ni-NTA); not shown: His6, C-terminal, cleaved
In the case of B2, the binding result in data set [2] was “binds”.

B3: Thr34Glu Fis1, cytosolic domain, tag-free (domain or fragment, human)
chain: T1 sequence (Q9Y3D6 1-123 T34D) with D34E
notes: Mitochondrial fission protein 1 (Fis1), human, cytosolic domain; also called phosphorylation mimic-mutant; source: E. coli BL21 (DE3), purified (Ni-NTA, HRV 3C cleavage, reverse Ni-NTA); not shown: His6, C-terminal, cleaved
Regarding B3, the binding result in data set [2] is listed as “binds”.
